US20210380703A1
Changes are numbered by the printed parent chain.

Target: Human Fc (human)
Test: ELISA; negative control

B1: 374_G05 (antibody, V domains shown)
VH: EVQLLESGGGLVQPGGSLRLSCAASGFTFSSYSMNWVRQAPGKGLEWVSNINYNSGYKGYADSVKGRFTISRDNSKNTLYLQMNSLRAEDTAVYYCARGATWHDTHLDYWGQGTLVTVSS
VL: DIQMTQSPSSLSASVGDRVTITCRASQSIISYLNWYQQKPGKAPKLLIYAATSRASGVPSRFSGSGSGTDFTLTISSLQPEDFATYYCQQSYDLPLTFGGGTKVEIK
optical density: 0.158 OD

B2: 374_H05 (antibody, V domains shown)
VH: B1 VH with S49A, N50G, S55G, K58T, G59S
VL: B1 VL with I30L, L33V, L47V, L94N
optical density: 0.257 OD

B3: 375_A03 (antibody, V domains shown)
VH: B1 VH with S30D, S49A, N50G, S55G, K58T, G59S
VL: B1 VL with I30L, S31T, A55H, L94N
optical density: 0.203 OD

B4: 375_B03 (antibody, V domains shown)
VH: B1 VH with S49A, N50G, S55G, K58T, G59S
VL: B1 VL with I30L, S31T, L94S
optical density: 0.209 OD

B5: 375_C11 (antibody, V domains shown)
VH: B1 VH with N50S, S55G, K58T, G59S
VL: B1 VL with I30L, L33V, A55H, L94T
optical density: 0.199 OD

B6: 375_F10 (antibody, V domains shown)
VH: B1 VH with N50G, S55G, K58T
VL: B1 VL with I30L, S31T, L47V, L94T
optical density: 0.21 OD

B7: 375_H08 (antibody, V domains shown)
VH: B1 VH with N50G, S55G, K58T, G59S
VL: B1 VL with I30L, S31T, R54L, L94S
optical density: 0.204 OD

B8: 376_A02 (antibody, V domains shown)
VH: B1 VH with S49A, N50G, S55G, G59S
VL: B1 VL with I30L
optical density: 0.22 OD

B9: 376_A07 (antibody, V domains shown)
VH: B1 VH with N50G, S55G, G59S
VL: B1 VL with I30L, S31T, L94S
optical density: 0.221 OD

B10: 365_A03 (antibody, V domains shown)
VH: B1 VH with S49A, N50G, G99S, T101N, H106A
VL: B1 VL with I30L, L47V, A51V, L94S
optical density: 0.342 OD

B11: 365_A11 (antibody, V domains shown)
VH: B1 VH with S30D, S31D, S33G, N50G, K58T, G59S, G99S, T101N, H106A
VL: B1 VL with I30L, L47V, R54L, D93E, L94S
optical density: 0.299 OD

B12: 365_A12 (antibody, V domains shown)
VH: B1 VH with S33G, N35H, S49A, N50G, S55G, K58T, G59S, R98K, G99S, T101N
VL: B1 VL with I30L, S31T, L33V, A55H, D93E, L94N
optical density: 0.422 OD

B13: 365_B01 (antibody, V domains shown)
VH: B1 VH with S30D, S33G, N35H, S49A, N50S, K58T, G59S, G99S, T101N, H106A
VL: B1 VL with I30S, L33V, L47V, D93E, L94S
optical density: 0.445 OD

B14: 365_B06 (antibody, V domains shown)
VH: B1 VH with S30D, S33G, N35H, S55G, G59S, G99S, T101N, H106A
VL: B1 VL with I30L, S31T, L33V, A51T, R54L
optical density: 0.281 OD

B15: 365_B07 (antibody, V domains shown)
VH: B1 VH with S33G, N35H, S49A, N50S, K58T, G59S, G99S, T101N, H106A
VL: B1 VL with I30L, S31T, D93E, L94N
optical density: 0.269 OD

B16: 365_B11 (antibody, V domains shown)
VH: B1 VH with S33G, N35H, S49A, N50G, S55G, K58T, G59S, G99S, T101N, H106A
VL: B1 VL with L47V, A51T, A55H, L94S
optical density: 0.305 OD

B17: 365_C01 (antibody, V domains shown)
VH: B1 VH with S30D, S33G, N50S, G59S, G99S, T101N
VL: B1 VL with I30V, L47V, A51V, D93E, L94S
optical density: 0.376 OD

B18: 365_C10 (antibody, V domains shown)
VH: B1 VH with S33G, N35H, S49A, N50S, S55G, K58T, G59S, G99S, T101N, H106A
VL: B1 VL with I30L, L33V, R54L, D93E, L94S
optical density: 0.397 OD

B19: 365_C11 (antibody, V domains shown)
VH: B1 VH with S49A, N50G, S55G, G59S, G99S, T101N
VL: B1 VL with S31T, L47V, A51V, D93S
optical density: 0.296 OD

B20: 365_C12 (antibody, V domains shown)
VH: B1 VH with S33G, S49A, N50G, G59S, G99S, T101N, H106A
VL: B1 VL with I30V, L33V, L47V, A51V, R54L, L94T
optical density: 0.332 OD

B21: 365_D09 (antibody, V domains shown)
VH: B1 VH with S33G, N35H, N50G, K58T, G59S, G99S, T101N, H106A
VL: B1 VL with I30L, Y92D, D93E, L94S
optical density: 0.302 OD

B22: 365_D12 (antibody, V domains shown)
VH: B1 VH with S30D, S33G, S55G, K58T, G99S, T101N, H106A
VL: B1 VL with I30V, S31T, L47V, L94T
optical density: 0.34 OD

B23: 365_E01 (antibody, V domains shown)
VH: B1 VH with S31D, N50G, G99S, T101N, H106A
VL: B1 VL with L94S
optical density: 0.363 OD

B24: 365_E05 (antibody, V domains shown)
VH: B1 VH with S33G, N35H, S49A, N50G, S55G, K58T, G59S, G99S, T101N, H106A
VL: B1 VL with I30V, L33V, R54L, L94N
optical density: 0.379 OD

B25: 365_E07 (antibody, V domains shown)
VH: B1 VH with S30D, S33G, N35H, N50G, K58T, G59S, R98K, G99S, T101N
VL: B1 VL with I30L, L94N
optical density: 0.302 OD

B26: 365_E09 (antibody, V domains shown)
VH: B1 VH with S33G, N35H, S49A, N50S, G59S, G99S, T101N, H106A
VL: B1 VL with I30L, S31T, L33V, L47V, Y92D, L94S
optical density: 0.322 OD

B27: 365_F01 (antibody, V domains shown)
VH: B1 VH with S30D, N50G, G99S, T101N
VL: B1 VL with I30V, L47V, R54L, D93E
optical density: 0.341 OD

B28: 365_F06 (antibody, V domains shown)
VH: B1 VH with S33G, S49A, N50G, G59S, G99S, T101N, H106A
VL: B1 VL with I30L, L33V, Y92D, D93N
optical density: 0.329 OD

B29: 365_F12 (antibody, V domains shown)
VH: B1 VH with S31D, N50G, S55G, K58T, G59S, G99S, T101N
VL: B1 VL with I30L, S31T, L33V, L47V, A55H, D93E, L94T
optical density: 0.411 OD

B30: 365_G01 (antibody, V domains shown)
VH: B1 VH with S30D, S33G, S49A, N50G, G59S, G99S, T101N, H106A
VL: B1 VL with I30L, S31T, L33V, A51T, L94S
optical density: 0.39 OD

B31: 365_G11 (antibody, V domains shown)
VH: B1 VH with S33G, S49A, S55G, K58T, G99S, T101N, H106A
VL: B1 VL with S31T, L33V, A51V, A55H, D93N, L94S
optical density: 0.278 OD

B32: 365_H03 (antibody, V domains shown)
VH: B1 VH with S30D, S31D, S33G, S49A, N50G, S55G, G59S, G99S, T101N, H106A
VL: B1 VL with I30L, L33V, L47V, R54L, A55H, D93N, L94N
optical density: 0.366 OD

B33: 365_H11 (antibody, V domains shown)
VH: B1 VH with N50G, K58T, G99S, T101N, H106A
VL: B1 VL with I30L, S31T, L94S
optical density: 0.375 OD

B34: 366_A07 (antibody, V domains shown)
VH: B1 VH with S33G, N35H, S49A, N50S, S55G, K58T, G99S, T101N, H106A
VL: B1 VL with I30V, L33V, L47V, A55H, D93E, L94S
optical density: 0.309 OD

B35: 366_B08 (antibody, V domains shown)
VH: B1 VH with S30D, S33G, S55G, G99S, T101N
VL: B1 VL with I30V, A55H, L94N
optical density: 0.403 OD

B36: 366_B10 (antibody, V domains shown)
VH: B1 VH with S33G, N50G, K58T, G59S, G99S, T101N, H106A
VL: B1 VL with L94N
optical density: 0.424 OD

B37: 366_B12 (antibody, V domains shown)
VH: B1 VH with S49A, N50G, G99S, T101N, H106A
VL: B1 VL with I30L, S31T, L33V, L94N
optical density: 0.311 OD

B38: 366_D04 (antibody, V domains shown)
VH: B1 VH with N50G, S55G, K58T, G59S, G99S, T101N, H106A
VL: B1 VL with I30S, L33V, A51T, D93E, L94T
optical density: 0.338 OD

B39: 366_E10 (antibody, V domains shown)
VH: B1 VH with S30D, S33G, N50G, S55G, G99S, T101N
VL: B1 VL with I30L, L33V, L47V, A55H, D93S
optical density: 0.271 OD

B40: 366_F04 (antibody, V domains shown)
VH: B1 VH with S31D, S33G, N50G, S55G, K58T, G59S, G99S, T101N, H106A
VL: B1 VL with I30L, L33V, L47V, A51T, A55H, D93E, L94S
optical density: 0.281 OD

B41: 366_F05 (antibody, V domains shown)
VH: B1 VH with S49A, G59S, G99S, T101N
VL: B1 VL with I30L, S31T, Y92D, D93N, L94T
optical density: 0.279 OD

B42: 366_F07 (antibody, V domains shown)
VH: B1 VH with S31D, S49A, N50G, K58T, G59S, G99S, T101N
VL: B1 VL with S31T, D93E, L94T
optical density: 0.353 OD

B43: 366_G04 (antibody, V domains shown)
VH: B1 VH with N50G, K58T, G59S, G99S, T101N, H106A
VL: B1 VL with S31T, Y92D, L94T
optical density: 0.31 OD

B44: 366_G05 (antibody, V domains shown)
VH: B1 VH with S30D, S33G, S55G, K58T, G59S, G99S, T101N, H106A
VL: B1 VL with L33V, L47V, D93E, L94N
optical density: 0.28 OD

B45: 366_H06 (antibody, V domains shown)
VH: B1 VH with S33G, N50S, S55G, K58T, G99S, T101N, H106A
VL: B1 VL with I30L, A51T, L94T
optical density: 0.285 OD

B46: 366_H07 (antibody, V domains shown)
VH: B1 VH with S33G, N35H, N50G, S55G, K58T, G59S, G99S, T101N, H106A
VL: B1 VL with L33V, L47V, A51V, D93E, L94N
optical density: 0.285 OD

B47: 366_H08 (antibody, V domains shown)
VH: B1 VH with S31D, S33G, S49A, N50S, K58T, G59S, G99S, T101N
VL: B1 VL with I30L, L33V, A55H, D93N, L94N
optical density: 0.417 OD

B48: 367_A04 (antibody, V domains shown)
VH: B1 VH with G59S, G99S, T101N, H106A
VL: B1 VL with S31T, Y92D, L94S
optical density: 0.267 OD
